Laboratory results taken from US20220089765A1, “CD31 COMPETITORS AND USES THEREOF” (ENCEFA, priority 2019, published 2022).

Test system: midbrain dopaminergic (TH+) neurons
Assay: MPP+ intoxication model in midbrain cell cultures, survival of DA (TH+) neurons
Format: cell-based, Wistar rat
Protocol: For this purpose, spontaneously occurring DA cell death was prevented by a treatment combining depolarizing concentrations of K^+ (30 mM) and MK801 (5 μM), a glutamate receptor antagonist used to prevent unwanted excitotoxic insult. The cultures were then exposed to 3 μM MPP between 5 and 7 days in vitro (DIV) to achieve a loss of approximately 50% of DA neurons.
Animals were treated in accordance with the Guide for the Care and Use of Laboratory Animals (National Research Council, 1996), European Directive 86/609, and the guidelines of the local institutional animal care and use committee. Cultures were prepared from the ventral mesencephalon of gestational age 15.5 Wistar rat embryos (Janvier Breeding Center, Le Genest St Isle, France). Dissociated cells in suspension obtained by mechanical trituration of midbrain tissue pieces were seeded at a density of 1.2-1.5×10^5 cells/cm^2 onto tissue culture supports precoated with 1 mg/mL polyethylenimine diluted in borate buffer pH 8.3 as described (Michel et al., 1997. J Neurochem. 69(4):1499-507). The cultures were then maintained in N5 medium supplemented with 5 mM glucose, 5% horse serum, and 0.5% fetal calf serum, except for the first 3 DIV, when the concentration of fetal calf serum was 2.5% to favor initial maturation of the cultures (Guerreiro et al., 2008. Mol Pharmacol. 74(4):980-9). They were fed daily by replacing 70% of the medium. Routinely, mesencephalic cultures were established on Nunc 24-well culture plates (Thermofischer Scientific, Rochester, N.Y.). Note that these cultures contain tyrosine hydroxylase (TH)^+ neurons that were exclusively dopaminergic (Traver et al., 2006. Mol Pharmacol. 70(1):30-40). TH^+ neurons represented approximately 1-2% of the total number of neuronal cells present in these cultures. The evaluation of the survival of DA neurons was performed by counting cells immunopositive for TH as described (Toulorge et al., 2011. Faseb J. 25(8):2563-73).
Treatments with MPP were performed in cultures where the spontaneous death process was prevented by long-term exposure to depolarizing concentrations of K^+ (30 mM), in the presence of the glutamate receptor antagonist MK801 (5 μM) to prevent unwanted excitotoxic insults as described previously (Douhou et al., 2001. J Neurochem. 78(1): 163-74). Treatments with MPP and potential neuroprotective molecules were carried out between 5 and 7 DIV.
The cultures were fixed for 12 min using 4% formaldehyde in Dulbecco's phosphate-buffered saline (PBS), then washed twice with PBS before an incubation step at 4° C. for 24 h with the following antibodies. A monoclonal anti-TH antibody diluted 1/5000 (ImmunoStar, Inc., Hudson, Wis.) was used to assess the survival of DA neurons. Antibody was diluted in PBS containing 0.2% Triton X-100. Detection of the primary antibodies was performed with an Alexa Fluor-488 conjugate of an anti-mouse IgG antibody.

B1: Clone B08: anti-human CD38 antibody, HCVR SEQ ID NO: 33 and LCVR SEQ ID NO: 39 (antibody, V domains shown)
VH: EVQLVESGGSLVKPGGSLRLSCAASGFTFSNYYMNWVRQAPGKGLEWISSISGSSRSIYYADFVKGRFTISRDNAKNSLYLQMNSLRAEDTAVYYCVRSSDDYYYDYGMDVWGRGTLVTVSS
VL: QSVLTQPASVSGSPGQSITISCAGTSSDVGGSYSVSWYQQHPGKAPKLMIYDDSNRPSGVSNRFSGSKSGNTASLTISGLQAEDEADYYCSSYTDYSTRVFGGGTKL
modifications: HCVR B08; LCVR B08
neuroprotective effect against MPP+-induced DA cell death, compared with reference clone HB7 (3 μM MPP+ between 5 and 7 DIV, each clone and HB7 0.5 μg/mL): stronger neuroprotective effect | neuroprotective effect in the presence of the lysosomal exocytosis inhibitor vacuolin-1 (3 μM MPP+, test substance 1 μg/mL, vacuolin-1 10 μM): antagonized
